Test results: patent US20190367589A1 (CYTOMX THERAPEUTICS, published 2019)
Substitutions are numbered along the chain they refer to.

T1: JS5340
T1 construct: also called masking moiety JS5340
T1 peptide displayed on cells: CNLWLHGGDCRGWQG

T2: JS5347
T2 construct: also called masking moiety JS5347
T2 peptide displayed on cells: CNIWGPSVDCGALLG

T3: JS5358
T3 construct: also called masking moiety JS5358
T3 peptide displayed on cells: CNIWVNGGDCRSFEG

B1: masking moiety JS4879 (peptide)
peptide: QLGLPAYMCTFECLR
B2: masking moiety JS4874 (peptide)
peptide: PWCMQRQDFLRCPQP
B3: masking moiety JS4906 (peptide)
peptide: CFLYSCTDVSYWNNT
B4: masking moiety JS5872 (peptide)
peptide: GCNIWLNGGDCRGWVDPLQG
B5: 4D11 Fab (Fab, V domains shown)
VH: EVQLLESGGGLVQPGGSLRLSCAASGFTFSSYAMSWVRQAPGKGLEWVSSIDPEGRQTYYADSVKGRFTISRDNSKNTLYLQMNSLRAEDTAVYYCAKDIGGRSAFDYWGQGTLVTVSS
VL: DIQMTQSPSSLSASVGDRVTITCRASQSISSYLNWYQQKPGKAPKLLIYAASSLQSGVPSRFSGSGSGTDFTLTISSLQPEDFATYYCQQTVVAPPLFGQGTKVEIKR
notes: C-terminally His-tagged Fab from the periplasm of E. coli; also called anti-Jagged Fab 4D11; Fab 4D11
B6: 4E7 Fab (Fab, V domains shown)
VH: EVQLLESGGGLVQPGGSLRLSCAASGFTFSSYAMSWVRQAPGKGLEWVSSIEEMGWQTKYADSVKGRFTISRDNSKNTLYLQMNSLRAEDTAVYYCAKSAAAFDYWGQGTLVTVSS
VL: B5 VL with T91S, V92L, P96L, L97T
notes: C-terminally His-tagged Fab from the periplasm of E. coli
B7: 4B2 Fab (Fab, V domains shown)
VH: B5 VH with D52E, P53Q, E54M, R56W
VL: B5 VL with V92L, V93D, L97Q
notes: as for B6
B8: 6B7 Fab (Fab, V domains shown)
VH: B6 VH with E52D, K59Y
VL: B5 VL with T91A, V92L, P96L, L97T
notes: as for B6
B9: 4E11 Fab (Fab, V domains shown)
VH: B5 VH with D52E, E54M, R56Q, Q57L, Y59E
VL: B5 VL with T91A, V92L, V93D, P96L, L97M
notes: as for B6
B10: 6F8 Fab (Fab, V domains shown)
VH: B6 VH with E52D, K59Y
VL: B5 VL with T91A, V92L, P96L, L97T
notes: C-terminally His-tagged Fab from the periplasm of E. coli; As printed its variable domains equal those of 6B7
B11: anti-Jagged 13 IgG (antibody, V domains shown)
VH: B6 VH with E53T, M54Q, W56P, Q57T, K59L, S99T, A100S, A101S
VL: DIQMTQSPSSLSASVGDRVTITCRASQSISSYLNWYQQKPGKAPKLLIYASSLQSGVPSRFSGSGSGTDFTLTIGSLQPEDFATYYCQQNVATPLTFGQGTKVEIKR
notes: Fully human IgG made from the variable domains of ScFv Jagged 13; also called anti-Jag 13
B12: anti-Jagged 32 IgG (antibody, V domains shown)
VH: B6 VH with E53Q, K59Y
VL: B11 VL with S51A, G75S, N90T, A92V, T93A
notes: Fully human IgG made from the variable domains of ScFv Jagged 32; also called anti-Jag 32; antibody 32/32
B13: anti-Jagged 13 Fab (Fab, V domains shown)
VH: B6 VH with E53T, M54Q, W56P, Q57T, K59L, S99T, A100S, A101S
VL: B11 VL
notes: Fab expressed in E. coli; also called Jag13
B14: anti-Jagged 32 Fab (Fab, V domains shown)
VH: B6 VH with E53Q, K59Y
VL: B11 VL with S51A, G75S, N90T, A92V, T93A
notes: Fab expressed in E. coli; also called Jag32
B15: masking moiety JS5342 (peptide)
peptide: CNIWLVGGDCRGWQG
B16: masking moiety JS5877 (peptide)
peptide: GCNIWLVGGDCRGWIGDTNG
B17: masking moiety JS5885 (peptide)
peptide: GCNIWLVGGDCRGWIEDSNG
B18: masking moiety JS4899 (peptide)
peptide: YCLQLPHYMQAMCGR
B19: masking moiety JS4896 (peptide)
peptide: CNLWVSGGDCGGLQG
B20: masking moiety JS4897 (peptide)
peptide: SCSLWTSGSCLPHSP
B21: masking moiety JS5887 (peptide)
peptide: GCNIWANGGDCRGWIDNIDG

Legend:
[1] = target: B5; test: FACS of bacteria displaying the peptide
[2] = target: T4, anti-Jagged antibody 4D11 (fully human IgG); test: FACS of bacteria displaying the peptide
T4 construct: Human IgG1 kappa from HEK-293 cells; Labeled with Alexa Fluor 680 in the tissue stainings, biotinylated in the peptide screens; also called anti-Jagged 4D11; 4D11 antibody

[3] = target: B5; test: FACS of bacteria displaying the peptide, labeled Fab 4D11, normalized to expression
[4] = target: T5, human Jagged 2-Fc (R&D Systems Cat #1726-JG-050) (human, UniProt Q9Y219 27-1080, limits assumed); test: BLI (Octet), Jagged-Fc on anti-human Fc tips, Fab in solution
T5 construct: Bought reagent; also called hJag2; h Jagged 2; not shown: Fc part
Experimental: (§1) Off rates for individual Fabs were measured using an Octet (ForteBio, Menlo Park, Calif.). […] Following a wash, the loaded tips were exposed to 25 μM Fab until binding had reached equilibrium. The tips were then removed to a fresh solution with no Fab, and the rate of Fab dissociation was measured.

[5] = target: T6, murine Jagged 2-Fc (R&D Systems) (murine, UniProt Q9QYE5 24-1082, limits assumed); test: as above
T6 construct: Bought reagent, cited as ibid. although no catalogue number is printed anywhere; also called m Jagged 2; not shown: Fc part
Experimental: as §1

[6] = target: T5, human Jagged 2-Fc (R&D Systems Cat …); test: drawn table 'Kd (nM)' of Fab; method not stated; the legend names the matured antibody as 4D11
[7] = target: B4; test: FACS of cells displaying the masking peptide, labelled Fab 4D11, signal normalised to expression; Fab concentration not given
[8] = target: B16; test: as above
[9] = target: B17; test: as above
[10] = target: B21; test: as above
[11] = target: T1, JS5340; test: FACS of cells displaying the peptide, biotinylated anti-Jagged Fab at 1, 10 and 100 nM, streptavidin-PE, normalised to expression with yPet-MONA
[12] = target: T2, JS5347; test: as above
[13] = target: T3, JS5358; test: as above
[14] = target: B15; test: as above
[15] = target: T7, human Jagged 1-Fc (extracellular domain of human Jagged 1 fused to the Fc portion of human IgG1); R&D Systems … (human, UniProt P78504 34-1067); test: BLI (Octet), Jagged-Fc on anti-human Fc tips, Fab in solution
T7 construct: extracellular domain; Bought reagent; also called hJag1; h Jagged 1; not shown: Fc portion of human IgG1
Experimental: as §1

[16] = target: T7, human Jagged 1-Fc (extracellular domain …); test: ELISA, ligand-Fc coated, anti-human IgG Fab-specific HRP
Experimental: (§2) Bound antibody was visualized with an anti-human IgG-HRP conjugate, Fab specific, (Sigma, St Louis, Mo.; Cat # A0293-1ML) and developed with the chromogenic substrate TMB.

[17] = target: T5, human Jagged 2-Fc (R&D Systems Cat …); test: as above
Experimental: as §2

T5 sequence (Q9Y219 27-1080 limits assumed): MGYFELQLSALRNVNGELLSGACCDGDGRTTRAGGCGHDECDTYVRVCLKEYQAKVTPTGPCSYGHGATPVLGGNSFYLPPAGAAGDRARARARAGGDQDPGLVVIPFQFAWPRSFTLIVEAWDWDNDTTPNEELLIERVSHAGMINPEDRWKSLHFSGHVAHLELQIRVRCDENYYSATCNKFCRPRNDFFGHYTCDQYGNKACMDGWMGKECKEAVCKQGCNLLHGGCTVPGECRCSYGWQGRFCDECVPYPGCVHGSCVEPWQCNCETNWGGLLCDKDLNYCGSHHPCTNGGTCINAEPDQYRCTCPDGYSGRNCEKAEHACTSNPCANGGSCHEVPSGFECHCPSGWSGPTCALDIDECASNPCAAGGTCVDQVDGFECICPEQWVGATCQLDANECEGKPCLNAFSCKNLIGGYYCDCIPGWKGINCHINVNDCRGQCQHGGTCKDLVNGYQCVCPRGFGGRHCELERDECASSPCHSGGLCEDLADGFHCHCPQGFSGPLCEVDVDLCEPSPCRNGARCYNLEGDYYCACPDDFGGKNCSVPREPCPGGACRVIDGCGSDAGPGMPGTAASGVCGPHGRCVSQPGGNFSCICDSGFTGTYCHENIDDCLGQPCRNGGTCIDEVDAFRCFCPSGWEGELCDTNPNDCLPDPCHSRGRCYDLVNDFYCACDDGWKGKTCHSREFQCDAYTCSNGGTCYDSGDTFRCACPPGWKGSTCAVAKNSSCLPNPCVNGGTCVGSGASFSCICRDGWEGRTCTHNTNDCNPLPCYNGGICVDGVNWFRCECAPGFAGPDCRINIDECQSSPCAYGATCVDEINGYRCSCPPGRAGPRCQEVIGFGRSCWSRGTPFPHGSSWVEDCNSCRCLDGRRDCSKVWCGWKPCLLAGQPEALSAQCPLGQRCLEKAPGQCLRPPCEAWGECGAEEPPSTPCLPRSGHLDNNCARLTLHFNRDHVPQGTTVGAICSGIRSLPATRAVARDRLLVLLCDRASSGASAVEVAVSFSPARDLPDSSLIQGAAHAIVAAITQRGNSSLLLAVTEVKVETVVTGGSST
T6 sequence (Q9QYE5 24-1082 limits assumed): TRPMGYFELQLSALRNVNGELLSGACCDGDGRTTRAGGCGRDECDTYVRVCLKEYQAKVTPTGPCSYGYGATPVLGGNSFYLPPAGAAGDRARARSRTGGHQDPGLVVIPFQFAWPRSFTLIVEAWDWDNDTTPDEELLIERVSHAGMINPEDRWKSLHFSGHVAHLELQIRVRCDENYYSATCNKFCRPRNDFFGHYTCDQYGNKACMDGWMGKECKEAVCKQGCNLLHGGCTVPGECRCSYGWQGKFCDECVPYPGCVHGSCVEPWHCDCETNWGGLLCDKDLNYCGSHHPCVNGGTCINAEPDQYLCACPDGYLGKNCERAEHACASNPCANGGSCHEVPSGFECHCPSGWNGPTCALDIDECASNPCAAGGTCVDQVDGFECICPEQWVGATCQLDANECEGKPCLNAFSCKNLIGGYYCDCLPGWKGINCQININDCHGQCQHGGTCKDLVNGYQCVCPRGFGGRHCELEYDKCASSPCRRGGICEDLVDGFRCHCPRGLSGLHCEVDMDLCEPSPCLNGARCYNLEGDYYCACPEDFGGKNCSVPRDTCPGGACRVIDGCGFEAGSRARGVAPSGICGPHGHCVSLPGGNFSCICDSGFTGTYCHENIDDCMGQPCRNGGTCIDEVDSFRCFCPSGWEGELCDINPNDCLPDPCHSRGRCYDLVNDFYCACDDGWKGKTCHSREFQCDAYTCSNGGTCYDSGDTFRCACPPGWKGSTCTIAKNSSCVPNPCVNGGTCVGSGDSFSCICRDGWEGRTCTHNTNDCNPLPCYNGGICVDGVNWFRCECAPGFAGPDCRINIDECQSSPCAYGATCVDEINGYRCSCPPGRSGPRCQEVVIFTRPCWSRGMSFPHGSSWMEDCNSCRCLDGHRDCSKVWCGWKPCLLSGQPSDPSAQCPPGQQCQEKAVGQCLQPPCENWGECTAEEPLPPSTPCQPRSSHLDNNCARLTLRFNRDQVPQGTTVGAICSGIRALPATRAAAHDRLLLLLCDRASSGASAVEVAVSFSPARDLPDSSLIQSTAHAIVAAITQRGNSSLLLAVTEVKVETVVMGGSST

B1
binding result [1]: binds | binding result [2]: binds

B2
binding result [1]: binds | binding result [2]: binds

B3
binding result [1]: binds | binding result [2]: binds

B4
binding result [3]: binds

B5
koff [4]: 0.00045 s⁻¹ | koff [5]: 0.00042 s⁻¹ | Kd [6]: < 1 nM | binding result [7]: binds | binding result [8]: binds | binding result [9]: binds | binding result [10]: binds | binding result [11]: binds | binding result [12]: binds | binding result [13]: binds | binding result [14]: binds

B6
koff [15]: 0.00069 s⁻¹

B7
koff [15]: 0.0005 s⁻¹ | koff [4]: 0.0065 s⁻¹ | koff [5]: 0.0011 s⁻¹

B8
koff [15]: 0.00035 s⁻¹

B9
koff [15]: 0.0014 s⁻¹ | koff [4]: 0.00057 s⁻¹ | koff [5]: 2.5e-05 s⁻¹

B10
koff [15]: 0.0012 s⁻¹

B11
affinity (ELISA) [16]: > 30 nM | affinity (ELISA) [17]: > 30 nM

B12
affinity (ELISA) [16]: > 30 nM

B13
koff [15]: 0.022 s⁻¹ | koff [4]: 0.001 s⁻¹ | koff [5]: 0.0028 s⁻¹

B14
koff [15]: 0.027 s⁻¹

B15
binding result [3]: binds

B16
binding result [3]: binds

B17
binding result [3]: binds

B18
binding result [1]: binds | binding result [2]: binds

B19
binding result [1]: binds | binding result [2]: binds

B20
binding result [1]: binds | binding result [2]: binds

B21
binding result [3]: binds
